Results: paper PMC10498682, “Selection of optimised ligands by fluorescence-activated bead sorting†”

B1: MinE07-Biotin (structured_RNA)
RNA: GGACGGAUUUAAUCGCCGUAGAAAAGCAUGUCAAAGCCGGAACCGUCC
modifications: 2'-F on all C and U; A and G ribo
B2: MinE07-U-Ph-Biotin (structured_RNA)
RNA: B1 RNA
modifications: 2'-F on all C and U; 5-phenyl on all 8 U (8,9,10,13,19,29,31,46)
B3: MinE07-U-Vi-Biotin (structured_RNA)
RNA: B1 RNA
modifications: 2'-F on all C and U; 5-vinyl on all 8 U (8,9,10,13,19,29,31,46)
B4: MinE07-U-I-Biotin (structured_RNA)
RNA: B1 RNA
modifications: 2'-F on all C and U; 5-iodo on all 8 U (8,9,10,13,19,29,31,46)
B5: MinE07UA-Biotin (structured_RNA)
RNA: CGGAUUUAAUCGCCGUAGAAAAGCAUGUCAAAGCCGGAACCGUCC
modifications: 2'-F on all C and U; 5-phenyl-U at 6,7,43 (U2,U3,U8); 5-iodo-U at 16 (U5); lacks 5' GGA
B6: MinE07UA'-Biotin (structured_RNA)
RNA: B1 RNA
modifications: 2'-F on all C and U; 5-phenyl-U at 9,10,46 (U2,U3,U8); 5-iodo-U at 19 (U5)
B7: MinE07UB-Biotin (structured_RNA)
RNA: B1 RNA
modifications: 2'-F on all C and U; 5-phenyl-U at 9,10,19 (U2,U3,U5); 5-iodo-U at 13 (U4)
B8: MinE07UC-Biotin (structured_RNA)
RNA: GGAUUUAAUCGCCGUAGAAAAGCAUGUCAAAGCCGGAACCGUCC
modifications: 2'-F on all C and U; 5-vinyl-U at 4,27 (U1,U7); 5-phenyl-U at 25 (U6); lacks 5' GGAC
B9: MinE07UC'-Biotin (structured_RNA)
RNA: B1 RNA
modifications: 2'-F on all C and U; 5-vinyl-U at 8,31 (U1,U7); 5-phenyl-U at 29 (U6)

Target: EGFR extracellular domain, Fc fusion (EGFR-Fc) (UniProt P00533 25-644)
Assay: ELISA-type plate assay; EGFR-Fc on protein A 96-well plates, biotinylated aptamer, streptavidin-AP chemiluminescence, n = 3; buffer, salt, pH and temperature not in the material
Conditions: protein: recombinant, tags: Fc, chain copies: 2, label: 5'-biotin, single strand

| Binder | Kd (5' and 3' ends base pair, three loops (predicted)) | Kd |
| --- | --- | --- |
| B1 | 3.7 ± 0.38 nM |  |
| B2 |  | 3.59 ± 0.82 nM |
| B3 |  | 4.62 ± 0.48 nM |
| B4 |  | 2.05 ± 0.26 nM |
| B5 |  | 1.53 ± 0.13 nM |
| B6 |  | 3.39 ± 0.71 nM |
| B7 |  | 1.47 ± 0.54 nM |
| B8 |  | 1.23 ± 0.1 nM |
| B9 |  | 1.11 ± 0.45 nM |
